Source: patent US20120058906A1 (published 2012)
Blank lines part the entries; values can stand above or below the binder they belong to.

Columns and labels:
[1] = molecular target: T1, rHuman HGF R/c-MET/Fc Chimera, CF (R&D Systems Cat#358-MT/CF) (human, UniProt P08581 25-932); experiment: ECL (MSD Multi-Spot) binding, antigen spotted on plate; Fab 5 nM;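 also: blank spot per well as comparator with Hit at signal to blank ratio of 4 or more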
T1 construct: Bought Fc chimera; also called HGF R/Fc; hepatocyte growth factor receptor; Fc part of the bought chimera not given

[2] = molecular target: T2, rHuman IGF-1 sR, CF (R&D Systems Cat#391-GR) (human, UniProt P08069 31-932); experiment: as above
T2 construct: Bought soluble receptor; also called insulin-like growth factor-1 soluble receptor; IGF-R1

[3] = molecular target: T3, rHuman ErbB2/Fc Chimera, CF (R&D Systems Cat#1129-ER) (human, UniProt P04626 23-652); experiment: as above
T3 construct: Bought Fc chimera; also called human epidermal growth factor 2 receptor; HER2/neu; Fc part of the bought chimera not given

[4] = molecular target: T4, Recombinant Human DLL4 (R&D Systems Cat#1506-D4/CF) (human, UniProt Q9NR61 27-524); experiment: as above
T4 construct: Bought recombinant protein; also called delta-like protein 4

[5] = molecular target: T5, rHuman EGF R/Fc Chimera, CF (R&D Systems Cat#344-ER) (human, UniProt P00533 25-645); experiment: as above
T5 construct: Bought Fc chimera; also called epidermal growth factor receptor; Fc part of the bought chimera not given

[6] = molecular target: T1, rHuman HGF R/c-MET/Fc Chimera, CF (R&D …); experiment: ECL (MSD Multi-Spot) binding, antigen spotted on plate; Fab 50 nM;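 also: blank spot per well as comparator with Hit at signal to blank ratio of 4 or more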
[7] = molecular target: T2, rHuman IGF-1 sR, CF (R&D Systems …); experiment: as above
[8] = molecular target: T3, rHuman ErbB2/Fc Chimera, CF (R&D …); experiment: as above
[9] = molecular target: T4, Recombinant Human DLL4 (R&D Systems …); experiment: as above
[10] = molecular target: T5, rHuman EGF R/Fc Chimera, CF (R&D …); experiment: as above
[11] = molecular target: T1, rHuman HGF R/c-MET/Fc Chimera, CF (R&D …); experiment: ECL (MSD Multi-Spot) binding, antigen spotted on plate; Fab 500 nM;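 also: blank spot per well as comparator with Hit at signal to blank ratio of 4 or more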
[12] = molecular target: T2, rHuman IGF-1 sR, CF (R&D Systems …); experiment: as above
[13] = molecular target: T3, rHuman ErbB2/Fc Chimera, CF (R&D …); experiment: as above
[14] = molecular target: T4, Recombinant Human DLL4 (R&D Systems …); experiment: as above
[15] = molecular target: T5, rHuman EGF R/Fc Chimera, CF (R&D …); experiment: as above
[16] = molecular target: T6, Recombinant Human DLL4 (delta-like protein 4) (human, UniProt Q9NR61 27-524); experiment: SPR, Fab on recombinant human DLL4; standard deviation in parentheses
T6 construct: Bought (R&D Systems Cat#1506-D4/CF); also called rHuman DLL4

[17] = molecular target: T6, Recombinant Human DLL4 (delta-like …); experiment: SPR, Fab on recombinant human DLL4

ECL signal [1]: 1020
ECL signal [2]: 917
ECL signal [3]: 1380
ECL signal [4]: 150000
ECL signal [5]: 1160
ECL signal [6]: 1280
ECL signal [7]: 1230
ECL signal [8]: 2110
ECL signal [9]: 94200
ECL signal [10]: 2040
ECL signal [11]: 2040
ECL signal [12]: 1870
ECL signal [13]: 2620
ECL signal [14]: 29900
ECL signal [15]: 2510
B1: Fab VH1-46_IGHD6-6*01_IGHJ1*01_S102A_S103P_S104F_H111F & L6_IGKJ1*01 (Fab, V domains shown)
VH: QVQLVQSGAEVKKPGASVKVSCKASGYTFTSYYMHWVRQAPGQGLEWMGIINPSGGSTSYAQKFQGRVTMTRDTSTSTVYMELSSLRSEDTAVYYCAREEYAPFSAEYFQFWGQGTLVTVSS
VL: not shown
notes: Fab made in E. coli; The heavy chain also carries the CH1 with Flag and His tags of Plasmid A, and the light chain the kappa constant region of Plasmid C

Kd [16]: 355 nM
kon [16]: 64500 M⁻¹ s⁻¹
koff [17]: 0.023 s⁻¹
B2: Fab VH5-51_IGHD5-18*01>3_IGHJ4*01_G100K_G104T & V3-4_IGLJ1*01 (Fab, V domains shown)
VH: EVQLVQSGAEVKKPGESLKISCKGSGYSFTSYWIGWVRQMPGKGLEWMGIIYPGDSDTRYSPSFQGQVTISADKSISTAYLQWSSLKASDTAMYYCARRKYSYTYDYFDYWGQGTLVTVSS
VL: QTVVTQEPSFSVSPGGTVTLTCGLSSGSVSTSYYPSWYQQTPGQAPRTLIYSTNTRSSGVPDRFSGSILGNKAALTITGAQADDESDYYCVLYMGSGISYVFGTGTKVTVL
notes: Modified anti-DLL4 Fab; lambda Plasmid E)
